# Measured values taken from publication PMC3617563 (Biochemistry, 2012).
# Positions count from the first letter of the chain named. Names may count otherwise. Read-outs that look alike come from different tables or passages of the source.
# B1: wild-type USP2 catalytic core (human ubiquitin-specific protease 2, amino acids 259 to 605) (domain or fragment, UniProt O75604 259-605, looked up)
# chain: NSKSAQGLAGLRNLGNTCFMNSILQCLSNTRELRDYCLQRLYMRDLHHGSNAHTALVEEFAKLIQTIWTSSPNDVVSPSEFKTQIQRYAPRFVGYNQQDAQEFLRFLLDGLHNEVNRVTLRPKSNPENLDHLPDDEKGRQMWRKYLEREDSRIGDLFVGQLKSSLTCTDCGYCSTVFDPFWDLSLPIAKRGYPEVTLMDCMRLFTKEDVLDGDEKPTCCRCRGRKRCIKKFSIQRFPKILVLHLKRFSESRIRTSKLTTFVNFPLRDLDLREFASENTNHAVYNLYAVSNHSGTTMGGHYTAYCRSPGTGEWHTFNDSSVTPMSSSQVRTSDAYLLFYELASPPSRM
# B2: C276A USP2 catalytic core (inactive active-site mutant) (domain or fragment, human, UniProt O75604 259-605, looked up)
# chain: B1 chain with C18A
# Experiments:
# [1] = molecular target: T1, native ubiquitin (monoubiquitin) (UniProt P0CG48 1-76); assay: stopped-flow fluorescence
# [2] = molecular target: T1, native ubiquitin (monoubiquitin); assay: stopped-flow fluorescence; remark: listed apart in the source
# [3] = molecular target: T2, Ub-AMC (ubiquitin-7-amino-4-methylcoumarin) (human, UniProt P0CG48 1-75, 7-amino-4-methylcoumarin (AMC) on the C-terminal glycine); assay: other fluorescence titration
# [4] = molecular target: T2, Ub-AMC …; assay: stopped-flow fluorescence
# [5] = molecular target: T2, Ub-AMC …; assay: stopped-flow fluorescence; remark: listed apart in the source
Binder,koff [1] [s⁻¹],kon [1] [M⁻¹ s⁻¹],koff [2] [s⁻¹],kon [2] [M⁻¹ s⁻¹],Kd [3] [µM],koff [4] [s⁻¹],kon [4] [M⁻¹ s⁻¹],Kd [5] [µM]
B1,2.64 ± 0.56,400000 ± 10000,,,,,,
B2,,,7.54 ± 2.6,480000 ± 50000,2.9 ± 0.6,1.82 ± 0.17,330000 ± 20000,5.5
